Drawing on the supplement of paper PMC10724198, this text covers protein stability index for 68 sequences.

The series relates to Saccharomyces cerevisiae. Description: protein stability index of tFT-peptide fusion (C-terminal peptide) (PSI (0-1 scale)); higher = more stable (slower turnover). To be noted: temperature: 30 C. On the procedure:
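MPS profiling in S. cerevisiae of the yeast C-terminome library: the last 12 aa of each annotated ORF are fused to the C-terminus of a sfGFP-mCherry timer, after a GGGS linker. Cells are FACS-sorted into 8 mCherry/sfGFP bins and deep-sequenced. PSI runs from 0 (unstable) to 1 (stable); wild type and das1Δ backgrounds, two technical replicates each.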

Setting [1] is: genetic background: das1 deletion.

± gives the standard deviation of the averaged measurements.

In turn, NMGGWVLGGNAR [SND1 C-terminal 12 aa] displayed a protein stability index under setting [1] of 0.721 ± 0.023 and a protein stability index (genetic background: wild type) of 0.6926 ± 0.0057.
With NNGSSNNNTQNT [SNF5 C-terminal 12 aa], the protein stability index by setting is: under setting [1], 0.67 ± 0.014; (genetic background: wild type) 0.673 ± 0.022.
Take NNLHSYEKRLHN [YAR075W C-terminal 12 aa]: the protein stability index reads like this: under setting [1], 0.69 ± 0.019; (genetic background: wild type) 0.7 ± 0.015.
Regarding NNQPHYRDQLLQ [REI1 C-terminal 12 aa], the protein stability index is, setting by setting: under setting [1], 0.6976 ± 0.0028; (genetic background: wild type) 0.706 ± 0.048.
The matching figures for NNVDVSWVDKLV [STB5 C-terminal 12 aa]: 0.712 ± 0.013 and 0.714 ± 0.046.
Regarding NPAARLDEDLYE [FRS2 C-terminal 12 aa], the protein stability index stood at 0.662 ± 0.053 under setting [1] and 0.707 ± 0.022 (genetic background: wild type).
The matching figures for NQKNEDLSDIKL [UTP30 C-terminal 12 aa]: 0.658 ± 0.019 and 0.755 ± 0.13.
The matching figures for NQTSFSRDRLRR [RRD1 C-terminal 12 aa]: 0.702 ± 0.013 and 0.722 ± 0.066.
As for NRAKGKVVVKMK [YIM1 C-terminal 12 aa], the protein stability index is, setting by setting: under setting [1], 0.69 ± 0.022; (genetic background: wild type) 0.6976 ± 0.0037.
Sequence NRRNNGYHPYNR [HRP1 C-terminal 12 aa] came in with a protein stability index under setting [1] of 0.688 ± 0.019 and a protein stability index (genetic background: wild type) of 0.6645 ± 0.0011.
As to NSARKRVFGTVI [DIP2 C-terminal 12 aa], the protein stability index is, setting by setting: under setting [1], 0.6997 ± 0.0036; (genetic background: wild type) 0.655 ± 0.0069.
Consider “NSISPPPRKGFI [YGL006W-A C-terminal 12 aa]”, for which the protein stability index by setting is: under setting [1], 0.7177 ± 0.005; (genetic background: wild type) 0.714 ± 0.055.
The matching figures for NTFTEHNSNIYY [SPT10 C-terminal 12 aa]: 0.704 ± 0.021 and 0.706 ± 0.029.
The matching figures for NTNELTDEHRWI [PHO2 C-terminal 12 aa]: 0.6977 ± 0.0017 and 0.668 ± 0.017.
The matching figures for “NVFNPDQPRMGP [YLR154W-A C-terminal 12 aa]”: 0.711 ± 0.017 and 0.711 ± 0.018.
For the sequence NVGYMHTQPQQR [TCO89 C-terminal 12 aa], the protein stability index under setting [1] came out at 0.71 ± 0.0077 and the protein stability index (genetic background: wild type) is 0.67 ± 0.016.
Regarding NVIRVWQVMTAN [ASC1 C-terminal 12 aa], the protein stability index amounted to 0.576 ± 0.0091 under setting [1] and 0.272 ± 0.016 (genetic background: wild type).
The matching figures for NVLTVVNPDEAD [SLG1 C-terminal 12 aa]: 0.692 ± 0.027 and 0.6841 ± 0.0015.
The matching figures for NWSNQQINVQSS [PHM8 C-terminal 12 aa]: 0.7172 ± 0.0032 and 0.674 ± 0.018.
On to NYEITPYENVHV [TOS2 C-terminal 12 aa], for which the protein stability index runs as follows: under setting [1], 0.682 ± 0.026; (genetic background: wild type) 0.7131 ± 0.0041.
Sequence NYLFKLMGPSSD [VTC2 C-terminal 12 aa] came in with a protein stability index under setting [1] of 0.687 ± 0.032 and a protein stability index (genetic background: wild type) of 0.655 ± 0.008.
The matching figures for PAAVFAETLKHD [RPL4B C-terminal 12 aa]: 0.686 ± 0.016 and 0.705 ± 0.011.
Turning to PDDQIHSILLSL [MET13 C-terminal 12 aa], the protein stability index reads like this: under setting [1], 0.708 ± 0.019; (genetic background: wild type) 0.714 ± 0.018.
The matching figures for “PGGGGGSPLIFL [YHR165W-A C-terminal 12 aa]”: 0.7299 ± 0.0012 and 0.728 ± 0.02.
The matching figures for PGTRGRVASKFL [MIM1 C-terminal 12 aa]: 0.7098 ± 0.0037 and 0.705 ± 0.0099.
As to PISHVNNNDTHA [SLM3 C-terminal 12 aa], the protein stability index under setting [1] was 0.727 ± 0.014 and the protein stability index (genetic background: wild type) was determined as 0.688 ± 0.0079.
As to PKYKEEESRSAV [RSN1 C-terminal 12 aa], the protein stability index by setting is: under setting [1], 0.678 ± 0.035; (genetic background: wild type) 0.668 ± 0.019.
Consider PLTNNIRPISIM [YJR115W C-terminal 12 aa], for which the protein stability index came to 0.6893 ± 0.0007 under setting [1] and 0.6548 ± 0.005 (genetic background: wild type).
Regarding PMIWHLVKKQWK [TOM5 C-terminal 12 aa], the protein stability index under setting [1] stood at 0.686 ± 0.011 and the protein stability index (genetic background: wild type) was 0.682 ± 0.052.
The matching figures for PPNSTSTNPYSS [SKG3 C-terminal 12 aa]: 0.729 ± 0.015 and 0.7181 ± 0.0014.
On to PPPQESTEKEEK [MRP13 C-terminal 12 aa], for which the protein stability index by setting is: under setting [1], 0.709 ± 0.031; (genetic background: wild type) 0.668 ± 0.0098.
The matching figures for PPSPQEELLIEL [VPS27 C-terminal 12 aa]: 0.721 ± 0.017 and 0.7051 ± 0.0024.
The matching figures for PRERLLSEYCSS [MET8 C-terminal 12 aa]: 0.71885 ± 0.00032 and 0.7199 ± 0.0033.
In turn, PSNASNTTTRRP [YKR045C C-terminal 12 aa] registered a protein stability index under setting [1] of 0.703 ± 0.032 and a protein stability index (genetic background: wild type) of 0.6901 ± 0.0053.
The matching figures for PSYPSEKISYSK [ADO1 C-terminal 12 aa]: 0.7017 ± 0.0027 and 0.726 ± 0.065.
In the case of PTIVGGLYYQRP [AAR2 C-terminal 12 aa], the protein stability index was found to be 0.7 ± 0.0021 under setting [1] and 0.696 ± 0.012 (genetic background: wild type).
Regarding QAKKSNSCCIIM [YKT6 C-terminal 12 aa], the protein stability index runs as follows: under setting [1], 0.732 ± 0.034; (genetic background: wild type) 0.766 ± 0.06.
The matching figures for QAKLTAATNAKQ [PDC1 C-terminal 12 aa]: 0.698 ± 0.018 and 0.716 ± 0.035.
The matching figures for QEGGDNTKIKQN [RNP1 C-terminal 12 aa]: 0.731 ± 0.023 and 0.638 ± 0.024.
The matching figures for QFFFTSRQKNYV [ERP4 C-terminal 12 aa]: 0.707 ± 0.014 and 0.654 ± 0.01.
Take QIADDRPWCRME [YHC3 C-terminal 12 aa]: the protein stability index stood at 0.705 ± 0.01 under setting [1] and 0.6831 ± 0.0064 (genetic background: wild type).
The matching figures for QIAFAWQNKPRL [PXP1 C-terminal 12 aa]: 0.815 ± 0.029 and 0.793 ± 0.045.
Take QKAQDVDVSMQD [RPN13 C-terminal 12 aa]: the protein stability index worked out at 0.68 ± 0.022 under setting [1] and 0.654 ± 0.026 (genetic background: wild type).
With QKRKSRILSFIK [UBP9 C-terminal 12 aa], the protein stability index worked out at 0.7208 ± 0.006 under setting [1] and 0.732 ± 0.047 (genetic background: wild type).
Turning to QLINGRKIIAGN [MOT2 C-terminal 12 aa], the protein stability index runs as follows: under setting [1], 0.6718 ± 0.0014; (genetic background: wild type) 0.7 ± 0.09.
The matching figures for QLVKLQLVELKL [LAM5 C-terminal 12 aa]: 0.6108 ± 0.0024 and 0.602 ± 0.026.
The matching figures for QMQQMAKQFGMG [SRP54 C-terminal 12 aa]: 0.6863 ± 0.0024 and 0.68513 ± 0.00031.
For “QMSAMTEKFGKL [YKL068W-A C-terminal 12 aa]”, the protein stability index was 0.726 ± 0.0095 under setting [1] and 0.693 ± 0.015 (genetic background: wild type).
The matching figures for “QNEICQYDNTSP [YGR109W-B C-terminal 12 aa]”: 0.7173 ± 0.0057 and 0.694 ± 0.012.
The matching figures for QNLLSAYRMNHK [AVO1 C-terminal 12 aa]: 0.70387 ± 0.00067 and 0.64 ± 0.021.
With QQGGAGADQKTE [EMC10 C-terminal 12 aa], the protein stability index runs as follows: under setting [1], 0.6815 ± 0.0066; (genetic background: wild type) 0.656 ± 0.028.
As for QQQQQQQQQQQQ [PUB1 C-terminal 12 aa], the protein stability index runs as follows: under setting [1], 0.71 ± 0.029; (genetic background: wild type) 0.672 ± 0.052.
The matching figures for QVSLLLGFSSRS [MRX20 C-terminal 12 aa]: 0.698 ± 0.0012 and 0.7 ± 0.011.
The matching figures for QYDYELIQVQCS [PPN2 C-terminal 12 aa]: 0.431 ± 0.043 and 0.51 ± 0.032.
QYVLYKNEAGDK [AIM39 C-terminal 12 aa]: the protein stability index by setting is: under setting [1], 0.689 ± 0.017; (genetic background: wild type) 0.698 ± 0.019.
The matching figures for RAVTKYSSSTQA [HTB1 C-terminal 12 aa]: 0.7067 ± 0.0046 and 0.695 ± 0.034.
The matching figures for RDLFEIYQKMMQ [MUK1 C-terminal 12 aa]: 0.725 ± 0.02 and 0.706 ± 0.056.
Consider RDNQIPDKEIGI [CAF16 C-terminal 12 aa], for which the protein stability index by setting is: under setting [1], 0.6731 ± 0.0026; (genetic background: wild type) 0.704 ± 0.072.
Regarding REAKNLPKPSFL [EDC1 C-terminal 12 aa], the protein stability index stood at 0.70153 ± 0.00024 under setting [1] and 0.698 ± 0.0091 (genetic background: wild type).
Regarding RELLKSLVLSHR [RSM23 C-terminal 12 aa], the protein stability index reads like this: under setting [1], 0.703 ± 0.0085; (genetic background: wild type) 0.683 ± 0.019.
The matching figures for RFLDYVRELESF [PDX1 C-terminal 12 aa]: 0.698 ± 0.014 and 0.70618 ± 0.0004.
The matching figures for RGSEHYTKRKKI [UBS1 C-terminal 12 aa]: 0.687 ± 0.022 and 0.6822 ± 0.0035.
Take RIELSKYYNTNL [YPD1 C-terminal 12 aa]: the protein stability index is, setting by setting: under setting [1], 0.6986 ± 0.0043; (genetic background: wild type) 0.716 ± 0.059.
The matching figures for RIIEYFEEYQCW [FRE6 C-terminal 12 aa]: 0.712 ± 0.014 and 0.731 ± 0.042.
For RKEDDKRDTQEK [SOF1 C-terminal 12 aa], the protein stability index by setting is: under setting [1], 0.713 ± 0.024; (genetic background: wild type) 0.67 ± 0.019.
For the sequence “RKELEKGKKNSK [YLR363W-A C-terminal 12 aa]”, the protein stability index worked out at 0.694 ± 0.025 under setting [1] and 0.703 ± 0.054 (genetic background: wild type).
Regarding RKFVFNPPKPRK [CYT1 C-terminal 12 aa], the protein stability index worked out at 0.691 ± 0.025 under setting [1] and 0.694 ± 0.056 (genetic background: wild type).
The matching figures for RKYPNQCGTISN [EXG1 C-terminal 12 aa]: 0.712 ± 0.011 and 0.674 ± 0.03.
